Measured values reported in patent US20210261685A1 (Alector, published 2021).

T1: human MerTK extracellular domain (ECD), recombinant (human, UniProt Q12866 21-505)
T1 construct: also called huMerTK; not shown: polyHis tag or TEVS/Thrombin/murine IgG2a Fc tag
T1 sequence: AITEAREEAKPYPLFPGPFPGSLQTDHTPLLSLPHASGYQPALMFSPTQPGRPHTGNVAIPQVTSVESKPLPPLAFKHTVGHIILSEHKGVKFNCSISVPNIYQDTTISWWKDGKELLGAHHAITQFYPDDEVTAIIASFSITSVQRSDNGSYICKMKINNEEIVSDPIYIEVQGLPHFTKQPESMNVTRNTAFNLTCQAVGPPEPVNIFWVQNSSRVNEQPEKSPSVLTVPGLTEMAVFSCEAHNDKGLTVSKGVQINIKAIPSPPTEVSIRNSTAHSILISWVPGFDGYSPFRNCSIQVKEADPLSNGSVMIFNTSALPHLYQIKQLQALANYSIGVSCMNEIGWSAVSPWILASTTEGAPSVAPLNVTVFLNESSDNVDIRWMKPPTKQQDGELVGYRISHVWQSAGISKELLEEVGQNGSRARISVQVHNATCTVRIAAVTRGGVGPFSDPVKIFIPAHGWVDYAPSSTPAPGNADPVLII

T2: murine MerTK extracellular domain (ECD), recombinant (mouse, UniProt Q60805 19-497)
T2 construct: also called moMerTK; mouse MerTK; not shown: polyHis tag or TEVS/Thrombin/murine IgG2a Fc tag
T2 sequence: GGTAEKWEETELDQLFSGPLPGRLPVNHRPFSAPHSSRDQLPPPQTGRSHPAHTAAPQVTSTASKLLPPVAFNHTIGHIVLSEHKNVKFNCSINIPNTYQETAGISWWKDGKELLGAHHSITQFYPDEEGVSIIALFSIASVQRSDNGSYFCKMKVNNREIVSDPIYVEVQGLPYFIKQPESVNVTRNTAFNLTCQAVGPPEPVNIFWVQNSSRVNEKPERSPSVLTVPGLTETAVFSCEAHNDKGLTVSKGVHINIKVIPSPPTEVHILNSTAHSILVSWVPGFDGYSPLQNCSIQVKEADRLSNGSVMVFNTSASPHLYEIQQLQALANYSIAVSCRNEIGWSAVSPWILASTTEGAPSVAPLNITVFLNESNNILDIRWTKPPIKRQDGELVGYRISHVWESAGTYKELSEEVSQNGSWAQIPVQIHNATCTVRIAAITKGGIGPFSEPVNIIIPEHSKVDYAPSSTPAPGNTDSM


Experiments:
[1] = target: T1, human MerTK extracellular domain (ECD), …; assay: SPR, Carterra LSA, antibody immobilised
Summary of the method: (§1)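 Anti-MerTK antibodies diluted to 10 μg/ml in 10 mM Acetate, pH 4.25 were amine-coupled in a 96-spot array onto an HC200M chip activated with MES/sulfo-NHS/EDC, then blocked with 1M Ethanolamine pH 8.5. On a Carterra LSA, recombinant MerTK extracellular domain was injected at 33.3, 100, and 300 nM in HBS-TE with 0.5 mg/ml BSA, lowest to highest without regeneration. KD came from fitted k-on and k-off.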

[2] = target: T2, murine MerTK extracellular domain …; assay: SPR, Carterra LSA, antibody immobilised
Summary of the method: as §1

| Kd [1] [nM] | binding result [2] | Kd [2] [nM] | Binder |
| --- | --- | --- | --- |
| 6.7 | no binding (tested: 300 nM) | – | MTK-05 (antibody, human IgG1, V domains shown) VH: QVQLQQSGAELVQPGTSVRLSCKTSGYTFTSYWIQWVKQRPGQGLGWIGEIFPGTGTTYYNEKFKGKATLTIDTSSSTAYMQLSSLTSEDSAVYFCARDGAYFDVWGAGTTVTVSS VL: DIQMTQSPASLSASVGETVTFTCRASENIFSYLAWYQQKQGKSPQLLVYNAKTLAEGVPSRFSGSGSGTHFSLKINSLQPEDFGSYYCLHHYGTPLTFGAGTKLELK |
| 6.5 | – | 75 | MTK-33 (antibody, human IgG1, V domains shown) VH: QVQLQQPGPELVRPGTSVKLSCKASGYTFTSYWMHWIKQRPGQGLEWIGVIDPSDNYINYNQKFKGKATLTVDTSSSTAYLQLSSLTSEDSAVYYCAREAGTRGYFDYWGQGTTLTVSS VL: SIVMTQTPKFLLVSAGDRVIITCKASQSVSNTVAWYQQKPGQSPKLLIYYASNRYTGVPDRFTGSGYGTDFTFTISTVQAEDLAVYFCQQDYRSPFTFGSGTQLEMK |
| 25 | no binding (tested: 300 nM) | – | MTK-17 (antibody, human IgG1, V domains shown) VH: QIQLVQSGPELKKPGETVKISCKASGYTFTNFGMNWVKQAPGKGLKWMGWINTYTGEPTYADDFKGRFAFSLETSASTAYLQINNLKNEDTATYFCSRGAVLRAGAMDCWGQGTSVTVSS VL: DIQMTQSSSYLSVSLGGRVTITCKASDHINNWLAWYQQKPGNAPRLLISGATSLETGVPSRFSGSGSGKDYTLSITSLQTEDVATYYCQQYWSTPRTFGGGTKLEIK |
| 2.4 | – | 130 | MTK-19 (antibody, human IgG1, V domains shown) VH: EVQLQQSGPELVKPGASVKISCKTSGYTFTEYTMHWVKQSHGKSLEWLGGFNPNNVITSYNQRFQGRATLTVDKSSSTAYMELRSLTSDDSAVYYCTRGDLLWSLLLPGNYFDYWGQGTTLTVSS VL: not shown |
| 3 | no binding (tested: 300 nM) | – | MTK-11 (antibody, human IgG1, V domains shown) VH: QVQLKQSGPGLVQPSQSLSITCTVSGFSLTDYGVHWVRQSPGKGLEWLGVIWSSGTTDYNEAFISRLSISKDNSKSHVFFKMNSLQAIDTAIYYCARKGHDPYAMDYWGQGTSVTVSS VL: QIVLTQSPAIMSASLGERVTMTCTASSSISSSYFHWYQQKPGSSPKLWIYSTSNLPSGVPARFSGSGSGTSYSLTISSMEAEDAATYYCHQYYRSPLTFGAGTKLELK |
| 9.3 | no binding (tested: 300 nM) | – | MTK-20 (antibody, human IgG1, V domains shown) VH: QIQLVQSGPELKKPGETVKISCKASGYTFTNYGMTWVKQAPGKGLKWMGWINTYTGEPTYADDFKGRFALSLETSASTAYLQINNLKNEDTATYFCARGGGRLGLRPLDYWGQGTTLTVSS VL: DIQMTQTTSSLSASLGDRVTISCRASQDINNYLNWYQQKPDGTVKLLIYYTSRLHSGVPSRFSGSGSGTDYSLTISNLEQEDIATYFCQQGNTLPWTFGGGTKLEIK |
| 18 | no binding (tested: 300 nM) | – | MTK-18 (antibody, human IgG1, V domains shown) VH: QIQLVQSGPELKKPGETVKISCKASGYTFTHYGMTWVKQAPGKGLKWMGWINTYTGEPTYADDFKGRFAFSLETSASTAYLQINNLKNEDTATYFCARGGGQLGLRPLDYWGQGTTLTVSS VL: DIQMTQTTSSLSASLGDRVTFSCRASQAISNYLNWYQQKPDGTVKLLIYYTSRLHSGVPSRFSGSGSGTDYSLTISNLEQEDIATYFCQQGNTLPWTFGGGTKLEIK |
| 40 | no binding (tested: 300 nM) | – | MTK-21 (antibody, human IgG1, V domains shown) VH: QIQLVQSGPELKKPGETVKISCKASGYTFTNFGMTWVRQAPGMDLKWMGWINTYTGEPKYADDFKGRFALSLETSASTAYLQITNFKNEDTATYFCARGGGRLGLRPLDYWGQGTTLTVSS VL: DIQMTQTTSSLSASLGDRVTISCRASQDINNYLNWYQQKPDGTVKLLIYYTSSLHSGVPSRFSGSGSGTDYSLTITNLEQEDIATYFCQQGNTLPWTFGGGTRLEIK |
| – | no binding (tested: 300 nM) | – | MTK-01 (antibody, human IgG1, V domains shown) VH: QIQLVQSGPELKKPGETVKISCKASGYTFTNYGMNWVKQAPGKGLKCMGWINTYTGEPTYADDFKGRFAFSLETSATTAYLQINNLKNEDTATYFCARRDRYTWFAYWGQGTLVTVSA VL: QIVLSQSPAILSASPGEKVTMTCRASSSVSYMHWYQQKPGSSPKPWIYATSNLASGVPARFSGSGSGTSYSLTISRVEAEDAATYYCQQWSSNPPTFGGGTKLEIK |
| 18 | no binding (tested: 300 nM) | – | MTK-06 (antibody, human IgG1, V domains shown) VH: QIQLVQSGPELKKPGETVKISCKASGYTFTNYGMNWVKQAPGKGLKWMGWINTNTGEPTYAEEFKGRFAFSLETSASTAYLQINNLKNEDTATYFCARYYNYWYFDVWGAGTTVTVSS VL: QIVLSQSPAILSASPGEKVTMTCRASSSVSYMHWYQQKPGSSPKPWIYATSNLASGVPARFSGSGSGTSYSLTISRVEAEDAATYYCQQWSSKPPTFGGGTKLEIK |
| 2.7 | no binding (tested: 300 nM) | – | MTK-15 (antibody, human IgG1, V domains shown) VH: QIQLVQSGPELKKPGETVKISCKASGYTFTNYGVHWVKQAPGKGLKWMGWINTYTGEPTYADDFKGRFAFSLETSASTAYLQINNLKNEDMATYFCARGNRYAYMDYWGQGTSVTVSS VL: QIVLSQSPAILSASPGEKVTMTCRASSSVSYMHWYQQKSGSSPKPWIYATSNLASGVPARFSGSGSGTSYSLTISRVEAEDAATYYCQQWSSNPRTFGGGTKLEIK |
| 33 | no binding (tested: 300 nM) | – | MTK-04 (antibody, human IgG1, V domains shown) VH: QIQLVQSGPELKKPGETVKISCKASGYTFTNYGMNWVKQAPGKGLKCMGWINTYTGEPTYADDFKGRFAFSLETSASTAYLQINNLKNEDMATYFCAKYDNYAWFAYWGQGTLVTVSA VL: QIVLSQSPAFLSASPGEKVTMTCRASSSVSYMHWYLQKPGSSPKPWIYATSNLASGVPVRFSGSGSGTSYSLTISRVEAEDAATYYCQQWSSNPRTFGGGTKLEIR |
| 1.4 | no binding (tested: 300 nM) | – | MTK-16 (antibody, human IgG1, V domains shown) VH: LIQLVQSGPELKKPGETVKISCKASGYTFTNHGMNWVKQDPGKGLKWMGWINTYTGEPTYADDFKGRFVFSMETSASAAFLQINNLKNEDTATYFCARKGVTAARYFDYWGQGTTLTVSS VL: DIVMTQSPKFMSTSVGDRVSITCKASQNVRTAVAWYKKKPGQSPKALINLASNRHTGVPDRFTGSGSGTDFTLTISNVQSEDLADYFCLQHWNYPLTFGGGTKLEIK |
| 54 | no binding (tested: 300 nM) | – | MTK-03 (antibody, human IgG1, V domains shown) VH: DVQLQESGPGLVKPSQSLSLTCSVTGYSITSGYYWNWIRQFPGNTLEWMGYMSFDGDNKFNPSLKNRISITRDTSKNQFFLRLNSVTTEDTATYYCARGGYNYGSTEANWGQGTLVTVSA VL: QIVLTQSPAIMSAFPGEKVTITCSASSSVNYMHWFQQKPGTSPKLWIYSTSNLASGVPARFSGSGSGTSYSLTISRMEAEDAATYYCQQRSSYPFTFGSGTKLEIK |
| 43 | no binding (tested: 300 nM) | – | MTK-07 (antibody, human IgG1, V domains shown) VH: DVQLQESGPGLVKPSQSLSLTCSVTGYSITSGYYWNWIRQFPGNTLEWMGYMSFDGDNKFNPSLKNRISITRDTSKNQFFLRLNSVTTEDTATYYCARGGYNYGSTEANWGQGTLVTVST VL: QIVLTQSPAIMSAFPGEKVTITCSASSSVTYMHWFQQKPGTSPKLWIFSTSNLASGVPARFSGSGSGTSYSLTISRMEAEDAATYYCQQRSSYPFTFGSGTKLEIK |
| 5.3 | no binding (tested: 300 nM) | – | MTK-12 (antibody, human IgG1, V domains shown) VH: QVQLQQSGPQLVRPGASVKISCKASGYSFTSHWMHWVKQRPGQGLEWIGMIDPSDGESRLNQKFKDKATLTVDKSSSTAYMQLSSPTFEDSAVYYCARGIYYYGITYAMDYWGQGTSVTVSS VL: QIVLTQSPAIMSASPGEKVTMTCSASSSVSYMYWYQQKPRSSPRLLIYDTSNLASGVPVRFSGSGSGTSYSLTISRMEAEDAATYYCQQWSSYPLTFGAGTKLELK |
